# Reference: patent US20190248888A1, “METHODS OF LOWERING BLOOD GLUCOSE LEVELS” (Regeneron Pharmaceuticals, Inc., priority 2016, published 2019)
# B1: α-GCGR: potent monoclonal GCGR blocking antibody, HCVR/LCVR SEQ ID NOs: 86/88 (antibody, V domains shown)
# VH: EVQLVESGGGLVQPGGSLRLSCAASGFTFSNYLMNWVRQAPGKGLEWLANIQEDGIEKYYVDSVKGRFTISRDNAKNSLYLQMNSLRAEDTAVYYCAREPSHYDILTGYDYYYGMDVWGQGTTVTVS
# VL: DIQMTQSPSSLSASVGDRVTITCRASQGIRNDLGWYQQKPGKAPKRLIYAASSLQSGVPSRFSGSGSGTEFILTVSSLQPEDFATYYCLQYNSNPFTFGPGTKVDIK
# System: livers of mice
# Test: RNAseq gene expression in liver of GCGR antibody treated mice
# Assay type: in vivo, mouse
# Settings: 21 days
# Protocol: All procedures were conducted in compliance with protocols approved by the Institutional Animal Care and Use Committee of Regeneron Pharmaceuticals. The in vitro and in vivo characteristics of REGN1193 (H4H1327P), a potent monoclonal GCGR blocking antibody has been previously described (See U.S. Pat. No. 8,545,847). This antibody was used as the exemplary glucagon signaling pathway antagonist in all studies in this report (See the HVCR/LCVR amino acid sequence pair of SEQ ID NOs: 86/88 in the present application. See also the corresponding heavy chain complementarity determining regions (HCDRs 1-2-3 of SEQ ID NOs: 72-74-76) and the corresponding light chain complementarity determining regions (LCDRs 1-2-3 of SEQ ID NOs: 80-82-84). The GCGR antibody and isotype control antibody were diluted with sterile PBS.
# Total RNA was purified from all samples using MagMAX™-96 for Microarrays Total RNA Isolation Kit (Ambion by Life Technologies) according to manufacturer's specifications. Genomic DNA was removed using MagMAX™Turbo™DNase Buffer and TURBO DNase from the MagMAX kit listed above (Ambion by Life Technologies). mRNA was purified from total RNA using Dynabeads® mRNA Purification Kit (Invitrogen). Strand-specific RNA-seq libraries were prepared using ScriptSeq™ mRNA-Seq Library Preparation Kit (Epicentre). Twelve-cycle PCR was performed to amplify libraries. Sequencing was performed on Illumina HiSeq®2000 (Illumina) by multiplexed single-read run with 33 cycles.
# Raw sequence data (BCL files) were converted to FASTQ format via Illumina Casava 1.8.2. Reads were decoded based on their barcodes and read quality was evaluated with FastQC (http://www.bioinformatics.babraham.ac.uk/projects/fastqc/). Reads were mapped to the mouse transcriptome (NCBI GRCh37) using CLC Genomics Workbench Version 7.0 (CLCbio) or TopHat2 (Version 2.0.10) allowing two mismatches. Reads mapped to the exons of a gene were summed at the gene level. To identify differentially expressed genes, the statistical significance (p-value) of the differential expressions was assessed with DESeq package (version 1.6 or 2.0).
# A key role of glucagon is to promote the uptake and metabolism of amino acids in the liver to provide gluconeogenic precursors. To further explore this pathway, a recently described fully human GCGR-blocking antibody (Okamato et al, 2015, Endocrinol. 156:2781-2794; See also, U.S. Pat. No. 8,545,847) derived using VelocImmune technology (Macdonald et al., 2014, PNAS 111:5147-5152; Murphy et al., 2014, PNAS 111:5153-5158) was used in the experiments provided herein. […] As shown previously (Mu et al., 2012, PLOS ONE 7:349572; Okamoto et al., 2015, Endocrinol. 156:2781-2794; Solloway et al., 2015, Cell Reports 12:495-510), and confirmed later in this study, these findings provide a mechanism for the elevated circulating amino acid levels that are observed in mice and monkeys with impaired GCGR signaling.
# [1] = liver of mice, 15 mg/kg α-GCGR vs control antibody
molecule,measurement,setting,value
B1,Aass Fold change,[1],−1.85
same,Abat Fold change,[1],−1.64
same,Acmsd Fold change,[1],−2.70
same,Agxt Fold change,[1],−2.17
same,Aldh4a1 Fold change,[1],−1.64
same,Aldoa Fold change,[1],−1.15
same,Arg1 Fold change,[1],−1.56
same,Asl Fold change,[1],−1.92
same,Ass1 Fold change,[1],−3.23
same,Bhmt Fold change,[1],−2.00
same,Cbs Fold change,[1],−1.85
same,Cps1 Fold change,[1],−1.96
same,Cth Fold change,[1],−3.12
same,Ddc Fold change,[1],−2.08
same,Eno1 Fold change,[1],−1.20
same,Fbp1 Fold change,[1],−1.67
same,G6pc Fold change,[1],−1.39
same,Gcat Fold change,[1],−1.67
same,Gldc Fold change,[1],−1.72
same,Gnmt Fold change,[1],−2.56
same,Got1 Fold change,[1],−8.33
same,Gpi1 Fold change,[1],1.03
same,Gpt Fold change,[1],−1.72
same,Hgd Fold change,[1],−1.75
same,Hpd Fold change,[1],−1.92
same,Ivd Fold change,[1],−1.56
same,Lap3 Fold change,[1],−1.56
same,Mat1a Fold change,[1],−2.04
same,Mpst Fold change,[1],−1.61
same,Nags Fold change,[1],−1.67
same,Oat Fold change,[1],−6.67
same,Otc Fold change,[1],−1.12
same,Pah Fold change,[1],−1.75
same,Pck1 Fold change,[1],−1.82
same,Pgam1 Fold change,[1],−1.20
same,Pgk1 Fold change,[1],−1.16
same,Prodh Fold change,[1],−1.67
same,Sardh Fold change,[1],−1.75
same,Sds Fold change,[1],−3.23
same,Slc1a2 Fold change,[1],−1.25
same,Slc3a1 Fold change,[1],−1.72
same,Slc3a2 Fold change,[1],−1.08
same,Slc6a9 Fold change,[1],1.45
same,Slc7a2 Fold change,[1],−2.27
same,Slc15a3 Fold change,[1],−1.12
same,Slc15a4 Fold change,[1],−1.15
same,Slc16a10 Fold change,[1],−1.28
same,Slc17a8 Fold change,[1],2.32
same,Slc25a12 Fold change,[1],1.27
same,Slc25a13 Fold change,[1],−1.27
same,Slc25a15 Fold change,[1],−1.92
same,Slc25a22 Fold change,[1],−1.56
same,Slc36a1 Fold change,[1],−1.41
same,Slc36a4 Fold change,[1],−1.18
same,Slc38a2 Fold change,[1],−1.08
same,Slc38a3 Fold change,[1],−1.75
same,Slc38a4 Fold change,[1],−1.56
same,Slc38a6 Fold change,[1],−1.09
same,Slc38a7 Fold change,[1],1.05
same,Slc38a9 Fold change,[1],1.17
same,Slc38a10 Fold change,[1],−1.04
same,Slc43a1 Fold change,[1],−2.78
same,Tat Fold change,[1],−4.35
same,Tpi1 Fold change,[1],−1.14
same,pcx Fold change,[1],−1.15
same,Aass expression RPKM,"liver of mice, 15 mg/kg α-GCGR",60.38 RPKM
same,Abat expression RPKM,"liver of mice, 15 mg/kg α-GCGR",43.18 RPKM
same,Acmsd expression RPKM,"liver of mice, 15 mg/kg α-GCGR",3.90 RPKM
same,Agxt expression RPKM,"liver of mice, 15 mg/kg α-GCGR",111.91 RPKM
same,Aldh4a1 expression RPKM,"liver of mice, 15 mg/kg α-GCGR",64.72 RPKM
same,Aldoa expression RPKM,"liver of mice, 15 mg/kg α-GCGR",16.24 RPKM
same,Arg1 expression RPKM,"liver of mice, 15 mg/kg α-GCGR",969.96 RPKM
same,Asl expression RPKM,"liver of mice, 15 mg/kg α-GCGR",151.51 RPKM
same,Ass1 expression RPKM,"liver of mice, 15 mg/kg α-GCGR",190.00 RPKM
same,Bhmt expression RPKM,"liver of mice, 15 mg/kg α-GCGR",98.73 RPKM
same,Cbs expression RPKM,"liver of mice, 15 mg/kg α-GCGR",126.52 RPKM
same,Cps1 expression RPKM,"liver of mice, 15 mg/kg α-GCGR",419.74 RPKM
same,Cth expression RPKM,"liver of mice, 15 mg/kg α-GCGR",139.77 RPKM
same,Ddc expression RPKM,"liver of mice, 15 mg/kg α-GCGR",15.03 RPKM
same,Eno1 expression RPKM,"liver of mice, 15 mg/kg α-GCGR",14.96 RPKM
same,Fbp1 expression RPKM,"liver of mice, 15 mg/kg α-GCGR",365.35 RPKM
same,G6pc expression RPKM,"liver of mice, 15 mg/kg α-GCGR",40.65 RPKM
same,Gcat expression RPKM,"liver of mice, 15 mg/kg α-GCGR",18.88 RPKM
same,Gldc expression RPKM,"liver of mice, 15 mg/kg α-GCGR",33.42 RPKM
same,Gnmt expression RPKM,"liver of mice, 15 mg/kg α-GCGR",449.55 RPKM
same,Got1 expression RPKM,"liver of mice, 15 mg/kg α-GCGR",9.98 RPKM
same,Gpi1 expression RPKM,"liver of mice, 15 mg/kg α-GCGR",16.58 RPKM
same,Gpt expression RPKM,"liver of mice, 15 mg/kg α-GCGR",103.74 RPKM
same,Hgd expression RPKM,"liver of mice, 15 mg/kg α-GCGR",109.59 RPKM
same,Hpd expression RPKM,"liver of mice, 15 mg/kg α-GCGR",874.17 RPKM
same,Ivd expression RPKM,"liver of mice, 15 mg/kg α-GCGR",51.86 RPKM
same,Lap3 expression RPKM,"liver of mice, 15 mg/kg α-GCGR",108.58 RPKM
same,Mat1a expression RPKM,"liver of mice, 15 mg/kg α-GCGR",525.98 RPKM
same,Mpst expression RPKM,"liver of mice, 15 mg/kg α-GCGR",17.32 RPKM
same,Nags expression RPKM,"liver of mice, 15 mg/kg α-GCGR",13.94 RPKM
same,Oat expression RPKM,"liver of mice, 15 mg/kg α-GCGR",66.76 RPKM
same,Otc expression RPKM,"liver of mice, 15 mg/kg α-GCGR",292.99 RPKM
same,Pah expression RPKM,"liver of mice, 15 mg/kg α-GCGR",232.16 RPKM
same,Pck1 expression RPKM,"liver of mice, 15 mg/kg α-GCGR",490.87 RPKM
same,Pgam1 expression RPKM,"liver of mice, 15 mg/kg α-GCGR",2.12 RPKM
same,Pgk1 expression RPKM,"liver of mice, 15 mg/kg α-GCGR",1.91 RPKM
same,Prodh expression RPKM,"liver of mice, 15 mg/kg α-GCGR",89.26 RPKM
same,Sardh expression RPKM,"liver of mice, 15 mg/kg α-GCGR",122.51 RPKM
same,Sds expression RPKM,"liver of mice, 15 mg/kg α-GCGR",39.47 RPKM
same,Slc1a2 expression RPKM,"liver of mice, 15 mg/kg α-GCGR",14.89 RPKM
same,Slc3a1 expression RPKM,"liver of mice, 15 mg/kg α-GCGR",9.78 RPKM
same,Slc3a2 expression RPKM,"liver of mice, 15 mg/kg α-GCGR",14.56 RPKM
same,Slc6a9 expression RPKM,"liver of mice, 15 mg/kg α-GCGR",10.29 RPKM
same,Slc7a2 expression RPKM,"liver of mice, 15 mg/kg α-GCGR",67.24 RPKM
same,Slc15a3 expression RPKM,"liver of mice, 15 mg/kg α-GCGR",1.15 RPKM
same,Slc15a4 expression RPKM,"liver of mice, 15 mg/kg α-GCGR",5.47 RPKM
same,Slc16a10 expression RPKM,"liver of mice, 15 mg/kg α-GCGR",14.93 RPKM
same,Slc17a8 expression RPKM,"liver of mice, 15 mg/kg α-GCGR",4.18 RPKM
same,Slc25a12 expression RPKM,"liver of mice, 15 mg/kg α-GCGR",4.68 RPKM
same,Slc25a13 expression RPKM,"liver of mice, 15 mg/kg α-GCGR",76.40 RPKM
same,Slc25a15 expression RPKM,"liver of mice, 15 mg/kg α-GCGR",50.85 RPKM
same,Slc25a22 expression RPKM,"liver of mice, 15 mg/kg α-GCGR",14.40 RPKM
same,Slc36a1 expression RPKM,"liver of mice, 15 mg/kg α-GCGR",3.90 RPKM
same,Slc36a4 expression RPKM,"liver of mice, 15 mg/kg α-GCGR",1.34 RPKM
same,Slc38a2 expression RPKM,"liver of mice, 15 mg/kg α-GCGR",17.59 RPKM
same,Slc38a3 expression RPKM,"liver of mice, 15 mg/kg α-GCGR",285.49 RPKM
same,Slc38a4 expression RPKM,"liver of mice, 15 mg/kg α-GCGR",261.42 RPKM
same,Slc38a6 expression RPKM,"liver of mice, 15 mg/kg α-GCGR",1.72 RPKM
same,Slc38a7 expression RPKM,"liver of mice, 15 mg/kg α-GCGR",4.41 RPKM
same,Slc38a9 expression RPKM,"liver of mice, 15 mg/kg α-GCGR",1.48 RPKM
same,Slc38a10 expression RPKM,"liver of mice, 15 mg/kg α-GCGR",19.58 RPKM
same,Slc43a1 expression RPKM,"liver of mice, 15 mg/kg α-GCGR",0.83 RPKM
same,Tat expression RPKM,"liver of mice, 15 mg/kg α-GCGR",197.67 RPKM
same,Tpi1 expression RPKM,"liver of mice, 15 mg/kg α-GCGR",46.09 RPKM
same,pcx expression RPKM,"liver of mice, 15 mg/kg α-GCGR",68.44 RPKM
same,"expression of genes involved in amino acid metabolism, urea cycle and gluconeogenesis","livers of mice, 15 mg/kg",reduced expression
same,expression of mitochondrial amino acid transporters Slc25a15 and Slc25a22,"livers of mice, 15 mg/kg",significantly reduced
same,"reduction of expression of plasma membrane amino acid transporters Slc38a3, Slc38a4, Slc7a2 and Slc3a1","livers of mice, 15 mg/kg",30-50%
